Values belong to the binder of their own block, whether it stands above or below them.
Target: purified human platelet αIIbβ3 integrin (human, UniProt P05106 27-788)
Assay: 2D off-rate, biomembrane force probe adhesion frequency

koff: 7.85 s⁻¹
B1: C-terminal biotinylated recombinant human apoA-IV (apoA-IV-GGC) (ligand)
chain: EVSADQVATVMWDYFSQLSNNAKEAVEHLQKSELTQQLNALFQDKLGEVNTYAGDLQKKLVPFATELHERLAKDSEKLKEEIGKELEELRARLLPHANEVSQKIGDNLRELQQRLEPYADQLRTQVSTQAEQLRRQLTPYAQRMERVLRENADSLQASLRPHADELKAKIDQNVEELKGRLTPYADEFKVKIDQTVEELRRSLAPYAQDTQEKLNHQLEGLTFQMKKNAEELKARISASAEELRQRLAPLAEDVRGNLRGNTEGLQKSLAELGGHLDQQVEEFRRRVEPYGENFNKALVQQMEQLRQKLGPHAGDVEGHLSFLEKDLRDKVNSFFSTFKEKESQDKTLSLPELEQQQEQQQEQQQEQVQMLAPLESGGC
modifications: maleimide-PEG2-biotin on the C-terminal cysteine of the GlyGlyCys linker

koff: 8.41 s⁻¹
B2: human fibrinogen (ligand)
chain 1: GPRVVERHQSACKDSDWPFCSDEDWNYKCPSGCRMKGLIDEVNQDFTNRINKLKNSLFEYQKNNKDSHSLTTNIMEILRGDFSSANNRDNTYNRVSEDLRSRIEVLKRKVIEKVQHIQLLQKNVRAQLVDMKRLEVDIDIKIRSCRGSCSRALAREVDLKDYEDQQKQLEQVIAKDLLPSRDRQHLPLIKMKPVPDLVPGNFKSQLQKVPPEWKALTDMPQMRMELERPGGNEITRGGSTSYGTGSETESPRNPSSAGSWNSGSSGPGSTGNRNPGSSGTGGTATWKPGSSGPGSTGSWNSGSSGTGSTGNQNPGSPRPGSTGTWNPGSSERGSAGHWTSESSVSGSTGQWHSESGSFRPDSPGSGNARPNNPDWGTFEEVSGNVSPGTRREYHTEKLVTSKGDKELRTGKEKVTSGSTTTTRRSCSKTVTKTVIGPDGHKEVTKEVVTSEDGSDCPEAMDLGTLSGIGTLDGFRHRHPDEAAFFDTASTGKTFPGFFSPMLGEFVSETESRGSESGIFTNTKESSSHHPGIAEFPSRGKSSSYSKQFTSSTSYNRGDSTFESKSYKMADEAGSEADHEGTHSTKRGHAKSRPVRDCDDVLQTHPSGTQSGIFNIKLPGSSKIFSVYCDQETSLGGWLLIQQRMDGSLNFNRTWQDYKRGFGSLNDEGEGEFWLGNDYLHLLTQRGSVLRVELEDWAGNEAYAEYHFRVGSEAEGYALQVSSYEGTAGDALIEGSVEEGAEYTSHNNMQFSTFDRDADQWEENCAEVYGGGWWYNNCQAANLNGIYYPGGSYDPRNNSPYEIENGVVWVSFRGADYSLRAVRMKIRPLVTQ
chain 2: GHRPLDKKREEAPSLRPAPPPISGGGYRARPAKAAATQKKVERKAPDAGGCLHADPDLGVLCPTGCQLQEALLQQERPIRNSVDELNNNVEAVSQTSSSSFQYMYLLKDLWQKRQKQVKDNENVVNEYSSELEKHQLYIDETVNSNIPTNLRVLRSILENLRSKIQKLESDVSAQMEYCRTPCTVSCNIPVVSGKECEEIIRKGGETSEMYLIQPDSSVKPYRVYCDMNTENGGWTVIQNRQDGSVDFGRKWDPYKQGFGNVATNTDGKNYCGLPGEYWLGNDKISQLTRMGPTELLIEMEDWKGDKVKAHYGGFTVQNEANKYQISVNKYRGTAGNALMDGASQLMGENRTMTIHNGMFFSTYDRDNDGWLTSDPRKQCSKEDGGGWWYNRCHAANPNGRYYWGGQYTWDMAKHGTDDGVVWMNWKGSWYSMRKMSMKIRPFFPQQ
chain 3: YVATRDNCCILDERFGSYCPTTCGIADFLSTYQTKVDKDLQSLEDILHQVENKTSEVKQLIKAIQLTYNPDESSKPNMIDAATLKSRKMLEEIMKYEASILTHDSSIRYLQEIYNSNNQKIVNLKEKVAQLEAQCQEPCKDTVQIHDITGKDCQDIANKGAKQSGLYFIKPLKANQQFLVYCEIDGSGNGWTVFQKRLDGSVDFKKNWIQYKEGFGHLSPTGTTEFWLGNEKIHLISTQSAIPYALRVELEDWNGRTSTADYAMFKVGPEADKYRLTYAYFAGGDAGDAFDGFDFGDDPSDKFFTSHNGMQFSTWDNDNDKFEGNCAEQDGSGWWMNKCHAGHLNGVYYQGGTYSKASTPNGYDNGIIWATWKTRWYSMKKTTMKIIPFNRLTIGEGQQHHLGGAKQVRPEHPAETEYDSLYPEDDL
